Reference: patent US20250026792A1, “SELF-ASSEMBLING PEPTIDES WITH HYALURONIC ACID BINDING DOMAINS AND METHODS OF USE THEREOF” (Northwestern University, priority 2022, published 2025)

Tests used:
[1] = molecular target: T1, collagen type IV (Mus musculus, UniProt P02463+P08122); experiment: ECM specificity binding test, collagen type IV coating; details: 5.0 mg/ml peptide, FIG. 4
T1 construct: purchased Sigma-Aldrich
Protocol: (§1) Peptides were incubated 24 hours at 37° C. on collagens I-IV, elastin, hyaluronic acid, and Geltrex. Coatings (10 pig/cm^2) were previously dried overnight in milli-Q water. Overall significance was assessed using analysis of variance, with Tukey's multiple comparison post-hoc analysis between ECM groups where n=4.
(§2) Biotinylated peptides were custom synthesized by ABI Scientific, Inc. (Sterling, VA). Uranyl acetate and TEM grids were from Ted Pella, Inc (Redding, CA). Unless specified otherwise, all water used in these experiments was Milli-Q grade. HA (˜1 MDa), collagen types I (rat), II (chicken), III (human), and IV (mouse), elastin (bovine), deuterium oxide (D2O), acetic acid-d4, sodium acetate-d3, 3-(Trimethylsilyl)propionic-2,2,3,3-d6 (DSS-D6) acid sodium salt, and 2,2,2-trifluoroethanol (TFE) and were obtained from Sigma-Aldrich (St. Louis, MO). Streptavidin (Alexa Fluor 488 conjugate) and Geltrex were obtained from Thermo Fisher Scientific Inc. (Waltham, MA). […]
(§3) Hyaluronic acid, collagens I, II, III, and IV, elastin, and Geltrex were coated onto 96-well black plates (medium binding affinity) at 10 μg/cm^2 and were dried in milli-Q water at room temperature. […] The plates were read with a fluorescence microplate reader for fluorescence intensity (Ex 490 nm, Em 525 nm). All data were normalized to the background fluorescence intensity of Streptavidin-488.

[2] = molecular target: T2, collagen type I (Rattus norvegicus, UniProt P02454+P02466); experiment: ECM specificity binding test, collagen type I coating; details: 5.0 mg/ml peptide, FIG. 4
T2 construct: purchased Sigma-Aldrich
T2 sequence (P02454 152-1207 limits assumed): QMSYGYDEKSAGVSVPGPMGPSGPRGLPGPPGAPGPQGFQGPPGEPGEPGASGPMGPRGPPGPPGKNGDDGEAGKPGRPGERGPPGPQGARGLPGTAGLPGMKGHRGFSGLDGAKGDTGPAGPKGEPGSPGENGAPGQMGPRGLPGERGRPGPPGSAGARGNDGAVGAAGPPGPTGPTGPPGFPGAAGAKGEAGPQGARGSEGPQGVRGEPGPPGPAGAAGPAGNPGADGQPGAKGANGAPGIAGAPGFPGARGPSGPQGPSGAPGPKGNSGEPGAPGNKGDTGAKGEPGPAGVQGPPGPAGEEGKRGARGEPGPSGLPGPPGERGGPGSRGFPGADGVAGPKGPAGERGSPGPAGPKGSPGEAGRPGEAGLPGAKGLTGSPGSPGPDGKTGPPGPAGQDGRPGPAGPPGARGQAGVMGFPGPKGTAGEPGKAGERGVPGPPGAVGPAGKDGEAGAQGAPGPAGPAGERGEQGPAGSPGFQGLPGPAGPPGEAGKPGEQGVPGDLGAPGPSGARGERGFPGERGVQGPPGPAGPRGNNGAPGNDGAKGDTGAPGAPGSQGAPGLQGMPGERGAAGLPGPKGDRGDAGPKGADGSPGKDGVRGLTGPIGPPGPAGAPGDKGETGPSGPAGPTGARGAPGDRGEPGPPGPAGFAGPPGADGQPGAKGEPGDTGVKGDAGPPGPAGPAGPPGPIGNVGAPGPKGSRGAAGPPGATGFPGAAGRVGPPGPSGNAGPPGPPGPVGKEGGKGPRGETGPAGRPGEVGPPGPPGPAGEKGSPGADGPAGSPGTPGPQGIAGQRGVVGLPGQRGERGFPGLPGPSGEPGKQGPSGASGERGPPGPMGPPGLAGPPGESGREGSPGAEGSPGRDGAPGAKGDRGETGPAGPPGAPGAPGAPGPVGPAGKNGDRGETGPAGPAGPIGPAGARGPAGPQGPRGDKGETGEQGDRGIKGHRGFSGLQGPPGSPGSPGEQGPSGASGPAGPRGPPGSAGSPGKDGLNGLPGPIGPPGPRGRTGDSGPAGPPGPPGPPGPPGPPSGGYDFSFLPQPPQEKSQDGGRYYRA
T2 sequence (P02466 86-1125 limits assumed): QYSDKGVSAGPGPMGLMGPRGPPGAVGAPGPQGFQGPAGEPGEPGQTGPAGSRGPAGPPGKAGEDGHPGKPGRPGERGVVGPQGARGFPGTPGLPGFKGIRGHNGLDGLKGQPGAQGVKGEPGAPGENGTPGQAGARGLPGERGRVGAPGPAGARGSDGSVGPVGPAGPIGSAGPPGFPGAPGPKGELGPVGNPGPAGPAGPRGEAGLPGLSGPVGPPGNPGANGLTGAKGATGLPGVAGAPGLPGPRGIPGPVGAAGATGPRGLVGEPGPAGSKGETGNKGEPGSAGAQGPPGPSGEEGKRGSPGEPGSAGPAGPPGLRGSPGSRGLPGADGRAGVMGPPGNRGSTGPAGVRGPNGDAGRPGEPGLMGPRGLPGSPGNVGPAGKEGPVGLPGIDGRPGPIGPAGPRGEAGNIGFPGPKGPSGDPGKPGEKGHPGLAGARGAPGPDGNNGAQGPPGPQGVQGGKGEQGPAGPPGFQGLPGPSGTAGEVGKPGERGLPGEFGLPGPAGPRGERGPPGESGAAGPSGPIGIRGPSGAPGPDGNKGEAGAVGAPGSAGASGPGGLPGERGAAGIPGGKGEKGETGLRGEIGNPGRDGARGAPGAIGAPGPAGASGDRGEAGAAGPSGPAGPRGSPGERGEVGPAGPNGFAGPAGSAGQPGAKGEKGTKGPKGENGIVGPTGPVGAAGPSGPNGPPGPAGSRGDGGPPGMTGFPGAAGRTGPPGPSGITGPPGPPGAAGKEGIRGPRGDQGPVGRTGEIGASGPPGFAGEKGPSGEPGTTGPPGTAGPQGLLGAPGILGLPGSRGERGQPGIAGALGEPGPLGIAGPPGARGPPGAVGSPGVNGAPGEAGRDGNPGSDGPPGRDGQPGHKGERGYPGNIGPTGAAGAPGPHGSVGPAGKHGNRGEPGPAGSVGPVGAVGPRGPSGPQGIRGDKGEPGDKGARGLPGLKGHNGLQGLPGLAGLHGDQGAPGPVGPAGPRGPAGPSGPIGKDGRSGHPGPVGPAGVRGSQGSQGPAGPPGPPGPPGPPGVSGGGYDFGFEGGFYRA
Protocol: as §1, §2, §3

[3] = test system: extracellular matrix (ECM) components: Collagen type I, II, III and IV, elastin, hyaluronic acid and Geltrex; experiment: ECM specificity binding test, whole panel; details: 5.0 mg/ml peptide, FIG. 4
[4] = Circular dichroism (CD) of peptides; assay type: physicochemical; details: 20 mM Sodium Cacodylate; for Ellipticity ratio (222 nm/208 nm) / Ellipticity 208 nm / Ellipticity 222 nm: 1.25 mg/mL; for Ellipticity 208 nm / Ellipticity 222 nm: CD data given as [θ]M×10^−3; for wavelength Minimum of CD profile: 5.0 mg/mL
[5] = molecular target: T3, elastin (Bos taurus, UniProt P04985); experiment: ECM specificity binding test, elastin coating; parameters: species or system bovine; details: 5.0 mg/ml peptide, FIG. 4
T3 construct: purchased Sigma-Aldrich
T3 sequence (P04985 27-747): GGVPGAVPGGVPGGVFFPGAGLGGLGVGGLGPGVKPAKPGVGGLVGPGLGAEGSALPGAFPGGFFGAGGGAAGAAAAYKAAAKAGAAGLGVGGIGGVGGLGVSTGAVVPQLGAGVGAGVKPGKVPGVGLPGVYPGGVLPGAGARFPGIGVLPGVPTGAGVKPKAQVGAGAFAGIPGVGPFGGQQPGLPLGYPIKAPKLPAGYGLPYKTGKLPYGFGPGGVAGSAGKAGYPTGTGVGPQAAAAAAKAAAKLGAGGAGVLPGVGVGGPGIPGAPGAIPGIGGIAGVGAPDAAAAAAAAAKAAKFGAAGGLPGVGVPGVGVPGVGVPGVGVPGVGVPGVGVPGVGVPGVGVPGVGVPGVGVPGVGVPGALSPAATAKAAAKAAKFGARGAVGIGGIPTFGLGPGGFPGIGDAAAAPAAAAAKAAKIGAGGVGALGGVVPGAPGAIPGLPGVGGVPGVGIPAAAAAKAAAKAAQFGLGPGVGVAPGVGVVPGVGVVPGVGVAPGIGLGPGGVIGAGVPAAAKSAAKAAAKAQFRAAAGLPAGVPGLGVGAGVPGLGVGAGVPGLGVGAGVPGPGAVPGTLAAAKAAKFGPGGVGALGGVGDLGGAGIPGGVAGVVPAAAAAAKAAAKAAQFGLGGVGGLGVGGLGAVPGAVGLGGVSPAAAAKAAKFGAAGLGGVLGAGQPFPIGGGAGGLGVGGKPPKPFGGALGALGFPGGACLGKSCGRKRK
Protocol: as §1
Biotinylated peptides were custom synthesized by ABI Scientific, Inc. (Sterling, VA). Uranyl acetate and TEM grids were from Ted Pella, Inc (Redding, CA). Unless specified otherwise, all water used in these experiments was Milli-Q grade. HA (˜1 MDa), collagen types I (rat), II (chicken), III (human), and IV (mouse), elastin (bovine), deuterium oxide (D2O), acetic acid-d4, sodium acetate-d3, 3-(Trimethylsilyl)propionic-2,2,3,3-d6 (DSS-D6) acid sodium salt, and 2,2,2-trifluoroethanol (TFE) and were obtained from Sigma-Aldrich (St. Louis, MO). Streptavidin (Alexa Fluor 488 conjugate) and Geltrex were obtained from Thermo Fisher Scientific Inc. (Waltham, MA). Sodium hyaluronate (5 and 60 KDa) was purchased from Lifecore Biomedical LLC (Chaska, MN). In reference to terminology, N and C termini is used to describe the amino terminal (N) and the carboxyl terminal (C) of the peptide. The biotinylated peptides are used in every experiment.
Hyaluronic acid, collagens I, II, III, and IV, elastin, and Geltrex were coated onto 96-well black plates (medium binding affinity) at 10 μg/cm^2 and were dried in milli-Q water at room temperature. N-termini biotinylated peptides were added to coated plates at 0, 1, 2.5, 5 and 10 mg/ml overnight at 37° C. in phosphate buffered saline (PBS), pH 7.4, after which the plates were washed three times with PBS. Fluorescent streptavidin-488 (4 μg/mL) was added to each well and incubated at 37° C. temperature for 24 hours, then thoroughly washed with PBS. The plates were read with a fluorescence microplate reader for fluorescence intensity (Ex 490 nm, Em 525 nm). All data were normalized to the background fluorescence intensity of Streptavidin-488.

Sequence: KTKATVKIKNKQKSVNALKQKIVLLSK [Peptide 7c, 17x-3 variant]
- binding to collagen type IV [1]: predominantly
- binding to collagen type I [2]: predominantly
- binding to the ECMs (for 17x-3: the ECMs other than hyaluronic acid) [3]: moderate binding
- Ellipticity ratio (222 nm/208 nm) [4]: 0.46
- Ellipticity 208 nm [4]: −131
- Ellipticity 222 nm [4]: −60.9
- wavelength Minimum of CD profile [4]: 225 nm
- Ellipticity ratio (222 nm/208 nm) ([4]; 20% TFE): 0.89
- Ellipticity 208 nm ([4]; 20% TFE): −290
- Ellipticity 222 nm ([4]; 20% TFE): −259
- wavelength Minimum of CD profile ([4]; 20% TFE): 224 nm
- binding to elastin [5]: predominantly
